Source: the DeepSol protein solubility set

Experiment: soluble on expression in E. coli; label from the status in PepcDB or PDB records
In the case of “MTADKLVFFVNGRKVVEKNADPETTLLAYLRRKLGLSGTKLGCGEGGCGACTVMLSKYDRLQNKIVHFSANACLAPICSLHHVAVTTVEGIGSTKTRLHPVQERIAKSHGSQCGFCTPGIVMSMYTLLRNQPEPTMEEIENAFQGNLCRCTGYRPILQGFRTFARDGGCCGGDGNNPNCCMNQKKDHSVSLSPSLFKPEEFTPLDPTQEPIFPPELLRLKDTPRKQLRFEGERVTWIQASTLKELLDLKAQHPDAKLVVGNTEIGIEMKFKNMLFPMIVCPAWIPELNSVEHGPDGISFGAACPLSIVEKTLVDAVAKLPAQKTEVFRGVLEQLRWFAGKQVKSVASVGGNIITASPISDLNPVFMASGAKLTLVSRGTRRTVQMDHTFFPGYRKTLLSPEEILLSIEIPYSREGEYFSAFKQASRREDDIAKVTSGMRVLFKPGTTEVQELALCYGGMANRTISALKTTQRQLSKLWKEELLQDVCAGLAEELHLPPDAPGGMVDFRCTLTLSFFFKFYLTVLQKLGQENLEDKCGKLDPTFASATLLFQKDPPADVQLFQEVPKGQSEEDMVGRPLPHLAADMQASGEAVYCDDIPRYENELSLRLVTSTRAHAKIKSIDTSEAKKVPGFVCFISADDVPGSNITGICNDETVFAKDKVTCVGHIIGAVVADTPEHTQRAAQGVKITYEELPAIITIEDAIKNNSFYGPELKIEKGDLKKGFSEADNVVSGEIYIGGQEHFYLETHCTIAVPKGEAGEMELFVSTQNTMKTQSFVAKMLGVPANRIVVRVKRMGGGFGGKVTRSTVVSTAVALAAYKTGRPVRCMLDRDEDMLITGGRHPFLARYKVGFMKTGTVVALEVDHFSNVGNTQDLSQSIMERALFHMDNCYKIPNIRGTGRLCKTNLPSNTAFRGFGGPQGMLIAECWMSEVAVTCGMPAEEVRRKNLYKEGDLTHFNQKLEGFTLPRCWEECLASSQYHARKSEVDKFNKENCWKKRGLCIIPTKFGISFTVPFLNQAGALLHVYTDGSVLLTHGGTEMGQGLHTKMVQVASRALKIPTSKIYISETSTNTVPNTSPTAASVSADLNGQAVYAACQTILKRLEPYKKKNPSGSWEDWVTAAYMDTVSLSATGFYRTPNLGYSFETNSGNPFHYFSYGVACSEVEIDCLTGDHKNLRTDIVMDVGSSLNPAIDIGQVEGAFVQGLGLFTLEELHYSPEGSLHTRGPSTYKIPAFGSIPIEFRVSLLRDCPNKKAIYASKAVGEPPLFLAASIFFAIKDAIRAARAQHTGNNVKELFRLDSPATPEKIRNACVDKFTTLCVTGVPENCKPWSVRV”, the “soluble on expression in E. coli” value is reported as “soluble”. With “MKRTTLVMLLLTLCGFSSASFALSESEAEDLADLTAVFVYLKNDCGYQELPNNEIKRAIVYFAQQNRWDLHNYDSFNMKALGEDSYRDLRGIALPTPVKCKSLARDSLSLLAYAN” the “soluble on expression in E. coli” value was “not soluble”. For “MSLIDPKRARLPIIRQCTLLRLNRSGVYYRSVPQSEANLELMRLIDAQFLETPYYGSRQMTWHLRRLGHEVGRKRVRRLMAIMGLRAIYQKPRTSVPHPEHRKYPYLLRDLVIDRPNQVWCSDITYIPMKRGFLYLVAIMDWFTRKVLSWRLSNTMDAEFCIEALRDALMRYGPPEIFNTDQGSQFTTPRFTGILEERQIRISMDGRGRWLDNVFIERLWRSLKYECVYLHAFETESELRVGLTKWITHYNGQRPHTALAGRTPDEAYHGVPTPSGPGLTPDQMANSNAVRMAAEGHHHHHH”, the “soluble on expression in E. coli” value was “soluble”. For “MDSSNYFYGGNNICIINTKWGKHSGIGGYAEIIDTLVGNFTNISSWAKIGIRDHIHTNFLICDFVYKDNDHIMPPGISSFEDYWVKIGNDVWVGTNVTILRGVEVGDGAVIAAGSVVTKSIPPYAIVGGNPAKFIKWRFPFEVREKLLEIKLEHHHHHH”, the “soluble on expression in E. coli” value was “not soluble”. For “MVLAVKVQIKEGEKVRRKLIELGALNREYKIKREEGFLLIPVKFPVEGFEVVEVELERVETRPNSYKDVVNIPRELRKFLPSSFDIIGNIAIIEIPSELQNYSNEIGGAIIRVHKSVKAVYMKGGSVEGEYRVRNLIHIAGEKITETIHRENGVRLKLDITKVYFSPRLATERMRVFKMAREGEIVFDMFAGVGPFSILLAKKARMVFACDINPWAIKYLEENIKLNKVKNIIPILSDVTKVCVKADRIIMNLPKYASRFLEHAMRCVNNGGIIHYYGFGPEKDPYGWHVKRINEVAGRLGVKVEILGKRIIRNYAPRQYNIAIDFRVSF”, the “soluble on expression in E. coli” value was “soluble”. With “MSEPEEQQPDIHTTAGKLADLRRRIEEATHAGSARAVEKQHAKGKLTARERIDLLLDEGSFVELDEFARHRSTNFGLDANRPYGDGVVTGYGTVDGRPVAVFSQDFTVFGGALGEVYGQKIVKVMDFALKTGCPVVGINDSGGARIQEGVASLGAYGEIFRRNTHASGVIPQISLVVGPCAGGAVYSPAITDFTVMVDQTSHMFITGPDVIKTVTGEDVGFEELGGARTHNSTSGVAHHMAGDEKDAVEYVKQLLSYLPSNNLSEPPAFPEEADLAVTDEDAELDTIVPDSANQPYDMHSVIEHVLDDAEFFETQPLFAPNILTGFGRVEGRPVGIVANQPMQFAGCLDITASEKAARFVRTCDAFNVPVLTFVDVPGFLPGVDQEHDGIIRRGAKLIFAYAEATVPLITVITRKAFGGAYLVMGSKHLGADLNLAWPTAQIAVMGAQGAVNILHRRTIADAGDDAEATRARLIQEYEDALLNPYTAAERGYVDAVIMPSDTRRHIVRGLRQLRTKRESLPPKKHGNIPL” the “soluble on expression in E. coli” value was “soluble”. In the case of “MSLQSSVASGLSLNPEQLAVMAVGSGGVVVSLSAPAETVIVIVEHLDHKEEVIVQGREIVPSMDGHFDTIQELNSRFTESAPREKIEIGNRERPFKLHVVNVGDSRAMLVTRESYAALTRDHVPDDPGELRRIQETGDEGKKDNPSPSPITAKPDVRYFYATWEDVLILHSDGLLAESDRWEEVAGAALQCMESEPRIRGVATCLVQQAYRRGSTDNITALVSTFQKPSLNEGHHHHHH”, the “soluble on expression in E. coli” value is reported as “soluble”. In the case of “LYAPLVSLMITVPVFGQHEYTHALVADLEREGADYLIVDNRGDYPRIGTERVSTPGENLGWAGGSELGFRLAFAEGYSHAMTLNNDTRVSKGFVAALLDSRLPADAGMVGPMFDVGFPFAVADEKPDAESYVPRARYRKVPAVEGTALVMSRDCWDAVGGMDLSTFGRYGWGLDLDLALRARKSGYGLYTTEMAYINHFGRKTANTHFGGHRYHWGASAAMIRGLRRTHGWPAAMGILREMGMAHHRKWHKSFPLTCPASC”, the “soluble on expression in E. coli” value is reported as “not soluble”. With “MSLAYMPMTTVQHIATTNEKQAQKIIAELNAGASFDSQVRKYQNNRQAHTTAGKLAQFDSYNQTLAPAIVQATAKLRVGHYVTKPVKTVMATADTKDKPTYEIINVVSREGHHHHHH” the “soluble on expression in E. coli” value was “soluble”. In the case of “MGSDKIHHHHHHMSYNFEEERVIKEIREKNAKRVLLQFPEGLKYFSIDIVKKLREKLPNVNFIISGEPSWGACDIAEDEAQQVNADLIIHFGHTPYTWYYPKFPTIFINAESNLDISENALHSLENDISKYNGRKISLTATLQHVRLLSKIKSFLEDKGYDIVIGKPSNRFMFDGQVLGCDYKAAEVEADIYVIVSGGLFHALGLGLATNKPTIKLDPYLQKSEDITNDVRKILKVRYGKILQALDKRSWVIIQGVKVGQNRPNMIKYFYDKLTEKGYDVFTVTNKVLTLDILRNLDRNYIDVFLVTSCPRLPIDDLYNYEKPVLTPGEAKMIINNSLEPYIFPW”, the “soluble on expression in E. coli” value is reported as “not soluble”. In the case of “QVQLVESGGGLVQPGGSLRLSCATSGFTFTDYYMSWVRQPPGKALEWLGFIRNKANGYTTEYSASVKGRFTISRDNSQSILYLQMNTLRAEDSATYYCARDGSYAMDYWGQGTSVTVSSASTKGPSVFPLAPSSKSTSGGTAALGCLVKDYFPEPVTVSWNSGALTSGVHTFPAVLQSSGLYSLSSVVTVPSSSLGTQTYICNVNHKPSNTKVDKKVEP”, the “soluble on expression in E. coli” value is reported as “soluble”. In the case of “MKLERVLPFARSLLQTAVKEGDYAVDATLGNGHDTCFLAEIVGDNGKVFGFDIQKEAIESSTTRLKEKELFERTVLVHDSHDTLLSILPEDAKGKVTGAIFNLGYLPGGDKHIVTKPNSTISAIEQLLEVMAPEGIIVLVIYHGHPEGQVERDAVLKFAEELDQKQAHVLRYGFINQQNNPPFIVAIEKR”, the “soluble on expression in E. coli” value is reported as “not soluble”. In the case of “YIRKRVPLLCLGKRWFVFDKSLMKKTISYGSTSAMQQVCLQIGKTIIQAVVNTQGVSVMAAFTAVNRVDDFAYIPQQNIGHAMTTFIAQNKGAGKRERIRRGLQ”, the “soluble on expression in E. coli” value is reported as “not soluble”.
